# According to patent US20040229213A1 (INSTITUT PASTEUR, published 2004):
# B1: HCV core protein, full length (strain H) (other)
# chain: MSTNPKPQRKTKRNTNRRPQDVKFPGGGQIVGGVYLLPRRGPRLGVRATRKTSERSQPRGRRQPIPKARRPEGRTWAQPGYPWPLYGNEGCGWAGWLLSPRGSRPSWGPTDPRRRSRNLGKVIDTLTCGFADLMGYIPLVGAPLGGAARALAHGVRVLEDGVNYATGNLPGCSFSIFLLALLSCLTVPASA
# notes: mature; also called capsid protein; full-length capsid
# Target: the molecule itself
# Assay: yeast two-hybrid two-by-two matrix, LacZ and HIS3 reporters
protein,measurement,value
B1,binding result,no binding
